Assay results taken from patent US20120121613.

How the values were obtained:
[1] = molecular target: PEG-linker-FVIII (FVIII mutein conjugated to PEG through a thrombin-cleavable linker, linker not named in Example 2) (UniProt P00451)
unmodified FVIII mutein = unmodified FVIII mutein (UniProt P00451)
[2] = molecular target: PEG-FVIII (FVIII mutein directly, non-cleavably conjugated to PEG) (UniProt P00451)

thrombin
SDS-PAGE after thrombin digestion (30 min at 37° C.) [1]: the PEG-conjugated light chain almost completely disappeared in SDS-PAGE analysis, indicating a complete removal of PEG | SDS-PAGE after thrombin digestion (30 min at 37° C.) (unmodified FVIII mutein): After thrombin digestion, the FVIII light and heavy chains disappear and are replaced by cleavage products. | SDS-PAGE after thrombin digestion [2]: there was no removal of PEG-conjugated light chain (lane 4)
